T1: murine IL-11 (mouse) (UniProt P47873)
T1 sequence (looked up): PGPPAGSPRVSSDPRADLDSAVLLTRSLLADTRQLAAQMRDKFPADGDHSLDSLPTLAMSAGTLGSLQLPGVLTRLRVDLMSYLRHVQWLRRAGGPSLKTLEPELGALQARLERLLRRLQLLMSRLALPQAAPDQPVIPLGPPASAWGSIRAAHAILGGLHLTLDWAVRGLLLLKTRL

B1: YU100-A11 (scFv)
scFv: EVQLQQSGGGVVQPGRSLRLSCAASGFTFSSYGMHWVRQAPGKGLEWVAVISYDGSNKYYADSVKGRFTISRDNSKNTLYLQMNSLRAEDTAVYYCAKIGATDPLDYWGQGTLVTVSSGSASAPKLEEGEFSEARVQSALTQPRSVSGSPGQSVTISCTGTSSDVGGYNYVSWYQQHPGKAPKLMIYDVSKRPSGVPDRFSGSKSGNTASLTISGLQAEDEADYYCCSYAGSYTWVFGGGTKLTVL
B2: YU100-E07 (scFv)
scFv: QVQLQESGGGVVQPGRSLRLSCAASGFTFSSYGMHWVRQAPGKGLEWVAVISYDGSNRYYADSVKGRFAISRDNSKNTLYLQMNSLRAEDTAVYYCAKIGATDPLDYWGQGTLVTVSSGSASAPKLEEGEFSEARVQSALTQPRSVSGSPGQSVTISCTGTSSDVGGYDYVSWYQQHPGKAPELMIYDVTKRPSGVADRFSGSKSGNTASLTISGLQAEDEADYYCCSYAGRYTWVFGGGTKLTVL
B3: YU100-H02 (scFv)
scFv: QVQLQQSGGGVVQPGRSLRLSCAASGFTFSSYGMHWVRQAPGKGLEWVAVISYDGSNKYYADSVKGRFTISRDNSKNTLYLQMNSLRAEDTAVYYCARIMGYDYGDYDVVDYWGQGTLVTVSSGSASAPKLEEGEFSEARVQSALTQPRSVSRSPGQSVTISCTGTSSDVGTYNYVSWYQQHPGKAPKLMIYDVSKRPSGVPDRFSGSKSGNTASLTISGLQAEDEADYYCCSYAGFYTWVFGGGTKLTVL
B4: YU112-F05 (scFv)
scFv: EVQLVQSGGGVVQPGRSLRLSCAASGFTFGSYGMHWVRQAPGKGLEWVAVISYDGSNKYYADSVKGRFTISRDNSKNTLYLQMNSLRAEDTAVYYCAKIGATDPLDYWGQGTLVTVSSGSASAPKLEEGEFSEARVQSALTQPRSVSGSPGQSVTISCTGTSSDVGGYNYVSWYQQHPGKAPKLIIYDVNNRPSGVSNRFSASKSGNTASLTISGLQAEDEADYYCNSYTSGSTWVFGGGTKLTVL

The binders below were run against T1, murine IL-11 (mouse) (assay: ELISA binding signal).
B1 gave a mIL11 - average signal of 0.372. B2 was tested, and the mIL11 - average signal was 0.247. Work on B3 yielded a mIL11 - average signal of 0.188. B4 was tested, and the mIL11 - average signal was 0.601.

Reference: patent US20180186871A1
